Numbering of substitutions follows the chain as printed. Names and notes keep the numbering of the source.
Columns and labels:
[1] = molecular target: plasma purified human antithrombin III (AT-III), as complex with unfractionated heparin; experiment: ratio of K0.5 to Catalyst Biosciences WT FIXa, AT-III/UFH inhibition
[2] = molecular target: plasma purified human AT-III (antithrombin III); experiment: AT-III/UFH inhibition K0.5, ratio to Catalyst Biosciences WT FIXa

Sequence of Factor X (FX), P00742 (P00742 whole entry, looked up): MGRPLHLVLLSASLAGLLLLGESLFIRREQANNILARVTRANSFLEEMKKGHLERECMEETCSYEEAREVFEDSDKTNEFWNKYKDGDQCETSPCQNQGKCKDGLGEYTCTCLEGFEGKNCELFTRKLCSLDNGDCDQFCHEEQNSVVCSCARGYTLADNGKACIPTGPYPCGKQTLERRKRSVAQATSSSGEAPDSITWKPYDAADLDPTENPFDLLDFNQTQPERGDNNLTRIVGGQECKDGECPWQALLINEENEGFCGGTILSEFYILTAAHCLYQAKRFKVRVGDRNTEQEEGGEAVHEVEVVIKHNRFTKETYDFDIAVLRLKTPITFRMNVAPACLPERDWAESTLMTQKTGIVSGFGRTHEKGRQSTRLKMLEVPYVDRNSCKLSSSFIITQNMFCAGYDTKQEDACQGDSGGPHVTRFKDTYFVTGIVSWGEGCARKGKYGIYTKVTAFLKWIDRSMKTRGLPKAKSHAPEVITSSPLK
Sequence of Factor X, P00742 (P00742 whole entry, looked up): as above

B1: FIXa-I251S/R318Y/R338E/E410N (protein)
chain 1: YNSGKLEEFVQGNLERECMEEKCSFEEAREVFENTERTTEFWKQYVDGDQCESNPCLNGGSCKDDINSYECWCPFGFEGKNCELDVTCNIKNGRCEQFCKNSADNKVVCSCTEGYRLAENQKSCEPAVPFPCGRVSVSQTSKLTR
chain 2: VVGGEDAKPGQFPWQVVLNGKVDAFCGGSIVNEKWIVTAAHCVETGVKITVVAGEHNIEETEHTEQKRNVSRIIPHHNYNAAINKYNHDIALLELDEPLVLNSYVTPICIADKEYTNIFLKFGSGYVSGWGRVFHKGYSALVLQYLRVPLVDRATCLESTKFTIYNNMFCAGFHEGGRDSCQGDSGGPHVTEVEGTSFLTGIISWGEECAMKGKYGIYTKVSRYVNWIKNKTKLT
How did the K0.5-mut/K0.5-wt [1] turn out when B1 was run?
The K0.5-mut/K0.5-wt was 303.

What about the K0.5-mut/K0.5-wt [2] of the same protein?
The K0.5-mut/K0.5-wt was 303.

And the “% of WT kcat/KM” value (Factor X (FX), P00742)?
Its value is 849%.

What about the kcat (Factor X (FX), P00742) of the same protein?
Its kcat is 6.2 s⁻¹.

What about the kcat/KM (Factor X (FX), P00742) of the same protein?
The kcat/KM was 3.9e+08 M⁻¹ s⁻¹.

What about the “% of WT kcat/KM” value (Factor X, P00742) of the same protein?
The value was 851%.

And the KM (Factor X, P00742)?
The KM was 0.0162 µM.

And the kcat/KM (Factor X, P00742)?
The kcat/KM was 3.8e+08 M⁻¹ s⁻¹.

B2: FIXa-R318Y/R338E/T412A (protein)
chain 1: B1 chain 1
chain 2: B1 chain 2 with S71I, N230E, T232A
What does the source list for B2?
K0.5-mut/K0.5-wt [1]: 396; K0.5-mut/K0.5-wt [2]: 396; KM (Factor X (FX), P00742): 0.0235 µM; kcat of FX activation by FIXa (Xase complex with FVIIIa, PC/PS vesicles, Ca2+) (Factor X (FX), P00742): 7 s⁻¹; % of WT kcat/KM (Factor X, P00742): 661%; kcat (Factor X, P00742): 7 s⁻¹; kcat/KM (Factor X, P00742): 3e+08 M⁻¹ s⁻¹

B3: FIXa-K247N/N249S/R318Y/R338E/R403E/E410N (protein)
chain 1: B1 chain 1
chain 2: B1 chain 2 with K67N, N69S, S71I, R223E
With B3 as the protein, how does the K0.5-mut/K0.5-wt [1] read?
The K0.5-mut/K0.5-wt was 418.

And the K0.5-mut/K0.5-wt [2]?
The K0.5-mut/K0.5-wt was 418.

What about the “% of WT kcat/KM” value (Factor X (FX), P00742) of the same protein?
The value was 331%.

What about the kcat (Factor X (FX), P00742) of the same protein?
Its kcat is 5.8 s⁻¹.

And the kcat/KM (Factor X (FX), P00742)?
Its kcat/KM is 1.5e+08 M⁻¹ s⁻¹.

What about the “% of WT kcat/KM” value (Factor X, P00742) of the same protein?
The value was 341%.

What about the KM (Factor X, P00742) of the same protein?
The KM was 0.0392 µM.

What about the kcat/KM (Factor X, P00742) of the same protein?
Its kcat/KM is 1.5e+08 M⁻¹ s⁻¹.

B4: FIXa-Y155F/K228N/K247N/N249S (protein)
chain 1: B1 chain 1
chain 2: B1 chain 2 with K48N, K67N, N69S, S71I, Y138R, E158R, N230E
Which results are given for B4?
K0.5-mut/K0.5-wt [1]: 1.4; K0.5-mut/K0.5-wt [2]: 1.4; KM (Factor X (FX), P00742): 0.0792 µM; kcat of FX activation by FIXa (Xase complex with FVIIIa, PC/PS vesicles, Ca2+) (Factor X (FX), P00742): 4.3 s⁻¹; % of WT kcat/KM (Factor X, P00742): 118%; kcat (Factor X, P00742): 4.3 s⁻¹; kcat/KM (Factor X, P00742): 5.3e+07 M⁻¹ s⁻¹

B5: FIXa-K247N/N249S/R318Y/R338E/E410N (protein)
chain 1: B1 chain 1
chain 2: B1 chain 2 with K67N, N69S, S71I
B5 was tested. Which K0.5-mut/K0.5-wt [1] did it give?
Its K0.5-mut/K0.5-wt is 78.3.

And the K0.5-mut/K0.5-wt [2]?
Its K0.5-mut/K0.5-wt is 78.3.

And the “% of WT kcat/KM” value (Factor X (FX), P00742)?
Its value is 501%.

What about the kcat (Factor X (FX), P00742) of the same protein?
The kcat was 3.8 s⁻¹.

What about the kcat/KM (Factor X (FX), P00742) of the same protein?
The kcat/KM was 2.3e+08 M⁻¹ s⁻¹.

What about the “% of WT kcat/KM” value (Factor X, P00742) of the same protein?
The value was 516%.

And the KM (Factor X, P00742)?
Its KM is 0.0166 µM.

What about the kcat/KM (Factor X, P00742) of the same protein?
Its kcat/KM is 2.3e+08 M⁻¹ s⁻¹.

B6: FIXa-A103N/N105S/K247N/N249S/R318Y/R338E/R403E/E410N (protein)
chain 1: B1 chain 1 with A103N, N105S
chain 2: B1 chain 2 with K67N, N69S, S71I, R223E
How did the K0.5-mut/K0.5-wt [1] turn out when B6 was run?
Its K0.5-mut/K0.5-wt is 129.

And the K0.5-mut/K0.5-wt [2]?
Its K0.5-mut/K0.5-wt is 129.

And the “% of WT kcat/KM” value (Factor X (FX), P00742)?
The value was 324%.

What about the kcat (Factor X (FX), P00742) of the same protein?
The kcat was 4.1 s⁻¹.

And the kcat/KM (Factor X (FX), P00742)?
The kcat/KM was 1.5e+08 M⁻¹ s⁻¹.

And the “% of WT kcat/KM” value (Factor X, P00742)?
The value was 232%.

What about the KM (Factor X, P00742) of the same protein?
Its KM is 0.0397 µM.

What about the kcat/KM (Factor X, P00742) of the same protein?
The kcat/KM was 1e+08 M⁻¹ s⁻¹.

B7: FIXa-D104N/K106S/Y155F/K228N/K247N/N249S (protein)
chain 1: B1 chain 1 with D104N, K106S
chain 2: B1 chain 2 with K48N, K67N, N69S, S71I, Y138R, E158R, N230E
Which K0.5-mut/K0.5-wt [1] does the source give for B7 here?
Its K0.5-mut/K0.5-wt is 1.6.

And the K0.5-mut/K0.5-wt [2]?
The K0.5-mut/K0.5-wt was 1.6.

And the “% of WT kcat/KM” value (Factor X (FX), P00742)?
Its value is 137%.

What about the kcat (Factor X (FX), P00742) of the same protein?
Its kcat is 4.7 s⁻¹.

What about the kcat of FX activation by FIXa (Xase complex with FVIIIa, PC/PS vesicles, Ca2+) (Factor X (FX), P00742) of the same protein?
Its kcat of FX activation by FIXa (Xase complex with FVIIIa, PC/PS vesicles, Ca2+) is 4.7 s⁻¹.

What about the kcat/KM (Factor X (FX), P00742) of the same protein?
The kcat/KM was 6.3e+07 M⁻¹ s⁻¹.

And the “% of WT kcat/KM” value (Factor X, P00742)?
The value was 142%.

And the KM (Factor X, P00742)?
Its KM is 0.0753 µM.

What about the kcat/KM (Factor X, P00742) of the same protein?
The kcat/KM was 6.3e+07 M⁻¹ s⁻¹.

B8: FIXa-Y155F/K247N/N249S/R318Y/R338E/E410N (protein)
chain 1: B1 chain 1
chain 2: B1 chain 2 with K67N, N69S, S71I
What does the source list for B8?
K0.5-mut/K0.5-wt [1]: 200; K0.5-mut/K0.5-wt [2]: 200; % of WT kcat/KM (Factor X (FX), P00742): 717%; kcat (Factor X (FX), P00742): 4.3 s⁻¹; kcat/KM (Factor X (FX), P00742): 3.3e+08 M⁻¹ s⁻¹; % of WT kcat/KM (Factor X, P00742): 674%; KM (Factor X, P00742): 0.0153 µM; kcat/KM (Factor X, P00742): 3e+08 M⁻¹ s⁻¹

B9: FIXa-K228N/K247N/N249S (protein)
chain 1: B1 chain 1
chain 2: B1 chain 2 with K48N, K67N, N69S, S71I, Y138R, E158R, N230E
For B9, which K0.5-mut/K0.5-wt [1] is on record?
The K0.5-mut/K0.5-wt was 4.4.

What about the K0.5-mut/K0.5-wt [2] of the same protein?
Its K0.5-mut/K0.5-wt is 4.4.

What about the “% of WT kcat/KM” value (Factor X, P00742) of the same protein?
The value was 86%.

What about the KM (Factor X, P00742) of the same protein?
Its KM is 0.0945 µM.

What about the kcat/KM (Factor X, P00742) of the same protein?
The kcat/KM was 3.8e+07 M⁻¹ s⁻¹.

Reference: patent US20210238260
